Data: publication PMC3650080, “Structural Insights into the UbiD Protein Family from the Crystal Structure of PA0254 from Pseudomonas aeruginosa” (PLoS ONE, 2013)

B1: PA0254 from Pseudomonas aeruginosa (UbiD-like protein) (enzyme, Pseudomonas aeruginosa PAO1, UniProt Q9I6N5 1-496, looked up)
chain: MNRSALDFRHFVDHLRRQGDLVDVHTEVDANLEIGAITRRVYERRAPAPLFHNIRDSLPGARVLGAPAGLRADRARAHSRLALHFGLPEHSGPRDIVAMLRAAMRAEPIAPRRLERGPVQENVWLGEQVDLTRFPVPLLHEQDGGRYFGTYGFHVVQTPDGSWDSWSVGRLMLVDRNTLAGPTIPTQHIGIIREQWRRLGKPTPWAMALGAPPAALAAAGMPLPEGVSEAGYVGALVGEPVEVVRTQTNGLWVPANTEIVLEGEISLDETALEGPMGEYHGYSFPIGKPQPLFHVHALSFRDQPILPICVAGTPPEENHTIWGTMISAQLLDVAQNAGLPVDMVWCSYEAATCWAVLSIDVQRLAALGTDAAAFAARVAETVFGSHAGHLVPKLILVGNDIDVTEIDQVVWALATRAHPLHDHFAFPQIRDFPMVPYLDAEDKARGSGGRLVINCLYPEQFAGQMRAATASFRHAYPTALRRRVEERWSDYGFGDA
notes: PA0254, UbiD-like putative 3-polyprenyl-4-hydroxybenzoate decarboxylase of Pseudomonas aeruginosa PAO1; full-length gene (residues 1-496 modelled); calculated mass of His6-PA0254 57053 Da per subunit; The TEV-cleavable His6 tag was not removed (incomplete cleavage); tag residues -7 to 0 are partly seen in the trigonal crystal; A SeMet-substituted form was used for phasing only; also called UbiD2; …
B2: UbiD from P. aeruginosa (PA5237) (enzyme, Pseudomonas aeruginosa PAO1, UniProt Q9HTV3 1-488, looked up)
chain: MTFKDLRDFIAQLEQRGALKRIQVPISPVLEMTEVCDRTLRAKGPALLFEKPTGFDMPVLGNLFGTPERVALGMGAEDVGALREIGKLLAQLKEPEPPKGLKDAWAKLPMYRKVLSMAPKVLKDAPCQEVVEEGEDVDLGRLPVQTCWPGDVGPLITWGLTVTRGPNKERQNLGIYRQQVIGRNKVIMRWLSHRGGALDYREWCQKHPGQPYPVAVALGADPATILGAVTPVPDTLSEYAFAGLLRGHRTELVKCRGSDLQVPASAEIVLEGVIHPGEMADEGPYGDHTGYYNEVDRFPVFTVERVTRRQKPIYHSTYTGRPPDEPAILGVALNEVFVPILQKQFPEIVDFYLPPEGCSYRMAVVTMKKQYPGHAKRVMLGVWSFLRQFMYTKFVIVTDDDIDARDWNDVIWAITTRMDPKRDTVMIDNTPIDYLDFASPVSGLGSKMGLDATHKWPGETSREWGRAIVKDEAVTRRIDALWSSLGID
notes: PA5237, UbiD (3-polyprenyl-4-hydroxybenzoate decarboxylase) of Pseudomonas aeruginosa PAO1; construct not described; also called UbiD1; bona fide UbiD

What was measured:
[1] = target: the molecule itself; assay: crystal structure; two crystal forms of His6-PA0254: P2(1) (1 M (NH4)2SO4, 0.1 M Bis-Tris pH 5.5, 1% PEG 3350; 2.3 Å, four subunits in the asymmetric unit) and P3(2)21 (0.1 M Hepes pH 7.5, 0.2 M MgCl2, 10% PEG 400; 1.95 Å, three subunits); dimer told from crystal packing and PISA
[2] = target: the molecule itself; assay: SEC; superdex-200 column (GE-Healthcare) calibrated with Ribonuclease-A, Chymotrypsinogen-A, Ovalbumin, Albumin, Catalase and Ferretin; absorbance at 280 nm

| Protein | stoichiometry N [1] | stoichiometry N [2] |
| --- | --- | --- |
| B1 | 2 |  |
| B2 |  | 6 |
